Measured values from patent US20060058230A1 (published 2006).
Non-standard residues stand in square brackets, D forms with d. No end group written: not given here. 2Nal = N[C@@H](Cc1ccc2ccccc2c1)C(=O)O; Nle = CCCC[C@H](N)C(=O)O; βAla = NCCC(=O)O

Tests used:
[1] = target: T1, recombinant hPTH1-receptor (human, UniProt Q03431 27-593); assay: cell-based or functional assay
T1 sequence (looked up): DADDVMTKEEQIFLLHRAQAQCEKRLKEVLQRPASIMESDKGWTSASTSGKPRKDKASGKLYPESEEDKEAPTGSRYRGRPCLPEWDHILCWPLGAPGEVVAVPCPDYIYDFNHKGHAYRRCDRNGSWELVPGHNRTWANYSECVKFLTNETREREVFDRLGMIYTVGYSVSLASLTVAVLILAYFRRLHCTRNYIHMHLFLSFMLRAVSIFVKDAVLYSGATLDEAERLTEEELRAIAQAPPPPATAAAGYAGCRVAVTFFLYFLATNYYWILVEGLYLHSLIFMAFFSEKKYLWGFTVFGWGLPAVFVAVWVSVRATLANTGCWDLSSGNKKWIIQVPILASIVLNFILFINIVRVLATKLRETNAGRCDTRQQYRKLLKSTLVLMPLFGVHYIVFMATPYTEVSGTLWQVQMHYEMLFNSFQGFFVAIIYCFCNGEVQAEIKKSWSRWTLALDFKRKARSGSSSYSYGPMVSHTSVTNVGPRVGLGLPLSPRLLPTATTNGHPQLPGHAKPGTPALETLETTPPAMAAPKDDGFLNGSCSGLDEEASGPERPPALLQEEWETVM

[2] = target: T1, recombinant hPTH1-receptor; assay: competition with 125I-[Nle8,18,Nal23,Tyr34]bPTH(1-34)NH2 on HEK293/C21 cells with hPTH1-receptor
Experimental: Human embryonic kidney (HEK293) cells, stably transfected with recombinant hPTH1-receptor (HEK293/C21 cell line, ˜400,000 receptors/cell) (Pines, M., Adams, A. E., Stueckle, S., Bessalle, R., Rashti-Behar, V., Chorev, M., Rosenblatt, M., and Suva, L. J. Endocrinology 1994, 135, 1713-1716), were maintained in D-MEM medium supplemented with 10% fetal bovine serum and […] glutamine at 37° C. in a humidified atmosphere of 95% air/5% CO₂. The medium was changed every 3-4 days, and the cells were subcultured every week. Ligand stimulated adenylyl cyclase activity and radioreceptor competition binding assays were performed on confluent cultures, 1-3 days after a change of medium.
[Nle^{8,18},Nal²³,Tyr³⁴]bPTH(1-34)-NH₂ was radioiodinated and the crude material was purified as previously described (Roubini, E., Duong, L. T., Gibbons, S. W., Leu, C. T., Caulfield, M. P., Chorev, M., and Rosenblatt, M. Biochemistry 1992, 31, 4026-4033). Briefly, 67 μg of peptide in 50 μL phosphate buffer, pH 7.4, in a borosilicate tube, coated with 10 μg Iodogen® (Pierce Chemical), were treated at room temperature with 2 mCi [¹²⁵I]Na for 12 min, followed by dilution with 200 μL of 0.1% TFA in water.
Cells were plated in 24-well tissue culture dishes (Corning Glass Works, Corning, N.Y.) and grown to subconfluency. […] After incubation, cells were washed twice with PBS and lysed with 0.1 M NaOH. Radioactivity in the lysate was measured in a γ-counter (Analytic GammaTrac™ 1193).

B1: [Nle^8,β-Ala^18, Nal^23, Tyr^34]bPTH(1-34)NH2 (peptide)
peptide: AVSEIQF[Nle]HNLGKHLSS[βAla]ERVE[2Nal]LRKKLQDVHNY-NH2
modifications: N-terminus assumed
SMILES: CCCC[C@H](NC(=O)[C@H](Cc1ccccc1)NC(=O)[C@H](CCC(N)=O)NC(=O)[C@@H](NC(=O)[C@H](CCC(=O)O)NC(=O)[C@H](CO)NC(=O)[C@@H](NC(=O)[C@H](C)N)C(C)C)[C@@H](C)CC)C(=O)N[C@@H](Cc1c[nH]cn1)C(=O)N[C@@H](CC(N)=O)C(=O)N[C@@H](CC(C)C)C(=O)NCC(=O)N[C@@H](CCCCN)C(=O)N[C@@H](Cc1c[nH]cn1)C(=O)N[C@@H](CC(C)C)C(=O)N[C@@H](CO)C(=O)N[C@@H](CO)C(=O)NCCC(=O)N[C@@H](CCC(=O)O)C(=O)N[C@@H](CCCNC(=N)N)C(=O)N[C@H](C(=O)N[C@@H](CCC(=O)O)C(=O)N[C@@H](Cc1ccc2ccccc2c1)C(=O)N[C@@H](CC(C)C)C(=O)N[C@@H](CCCNC(=N)N)C(=O)N[C@@H](CCCCN)C(=O)N[C@@H](CCCCN)C(=O)N[C@@H](CC(C)C)C(=O)N[C@@H](CCC(N)=O)C(=O)N[C@@H](CC(=O)O)C(=O)N[C@H](C(=O)N[C@@H](Cc1c[nH]cn1)C(=O)N[C@@H](CC(N)=O)C(=O)N[C@@H](Cc1ccc(O)cc1)C(N)=O)C(C)C)C(C)C
notes: Synthetic analog of bovine PTH(1-34), carboxamide at the C-terminus
**Q.** B1 was tested. Which “EC50 (half maximal stimulation of adenylate cyclase)” value [1] did it give?
**A.** 3.9 nM

**Q.** And the IC50 [2]?
**A.** 285 nM
